The text below walks through data of doi:10.1101/2024.10.30.620795 (2024).

First the molecules themselves.
B1: 99 (TCR)
alpha TRAV5 TRAJ24 CDR3: CAERRGKLQF
beta TRBV15 TRBJ2-5 CDR3: CATSRGPGGSKAGETQYF
B2: 1690 (TCR)
alpha TRAV8-4 TRAJ10 CDR3: CAVSDLRVLTGGGNKLTF
beta TRBV7-9 TRBJ2-1 CDR3: CASSLALAGRNYNEQFF
B3: 1361 (TCR)
alpha TRAV12-1 TRAJ4 CDR3: CVVTGFSGGYNKLIF
beta TRBV14 TRBJ1-4 CDR3: CASSLVRGGFEKLFF
B4: 475 (TCR)
alpha TRAV3 TRAJ40 CDR3: CAVSGPTSGTYKYIF
beta TRBV5-5 TRBJ1-5 CDR3: CASSLWDGGNQPQHF
B5: 2997 (TCR)
alpha TRAV9-2 TRAJ9 CDR3: CALSALNTGGFKTIF
beta TRBV20-1 TRBJ1-1 CDR3: CSASGLTRDSPLNTEAFF
B6: 1650 (TCR)
alpha TRAV13-1 TRAJ9 CDR3: CAAPPGGFKTIF
beta TRBV28 TRBJ2-1 CDR3: CASTTSTGAYNEQFF
B7: 41 (TCR)
alpha TRAV12-2 TRAJ53 CDR3: CAVGRGGGSNYKLTF
beta TRBV29-1 TRBJ2-7 CDR3: CSAHGGWPYEQYF
B8: 6688 (TCR)
alpha TRAV12-1 TRAJ36 CDR3: CVVNKEDNLFF
beta TRBV9 TRBJ2-2 CDR3: CASSGGIETSGNTGELFF
B9: 9973 (TCR)
alpha TRAV39 TRAJ54 CDR3: CAVDSSFQGAQKLVF
beta TRBV6-2 TRBJ2-7 CDR3: CASSLPDSYEQYF
B10: 5766 (TCR)
alpha TRAV12-1 TRAJ43 CDR3: CVVNMYDDMRF
beta TRBV5-1 TRBJ2-2 CDR3: CASIDSNTGELFF
B11: 10749 (TCR)
alpha TRAV12-1 TRAJ20 CDR3: CVVNKEDKLSF
beta TRBV20-1 TRBJ2-2 CDR3: CSARDLLAANTGELFF
B12: 6579 (TCR)
alpha TRAV12-1 TRAJ10 CDR3: CVVNSPEGGGNKLTF
beta TRBV7-2 TRBJ1-1 CDR3: CASSSLNSLEAFF
B13: 3695 (TCR)
alpha TRAV12-1 TRAJ20 CDR3: CVVNWYDYKLSF
beta TRBV30 TRBJ2-2 CDR3: CAWINDQNTGELFF
B14: 7411 (TCR)
alpha TRAV12-1 TRAJ45 CDR3: CVVNRADGLTF
beta TRBV12-3 TRBJ2-2 CDR3: CASTDGNTGELFF
B15: 9825 (TCR)
alpha TRAV12-1 TRAJ43 CDR3: CVVNELDDMRF
beta TRBV5-1 TRBJ2-2 CDR3: CASAGPNTGELFF
B16: 84 (TCR)
alpha TRAV8-3 TRAJ24 CDR3: CAVGLTDSWGKLQF
beta TRBV5-8 TRBJ2-1 CDR3: CASSLAIRGIIDNEQFF
B17: 96 (TCR)
alpha TRAV38-1 TRAJ57 CDR3: CAFSPGGSEKLVF
beta TRBV5-1 TRBJ2-7 CDR3: CASSLGRFLRGDWDYEQYF

One assay deals with T1, A*01/LTD peptide on A*01/LTD (human).
T1 peptide: LTDEMIAQY
The experiment in a line: activation reporter or marker.
As for B1, the binding result is recorded as “recognises”.

Consider B2, for which the binding result is listed as “no recognition”.

For the molecule B3, the binding result is reported as “recognises”.

Take B4: the binding result is listed as “recognises”.

Turning to B5, the binding result is given as “recognises”.

As for B6, the binding result is reported as “recognises”.

Consider B7, for which the binding result is on record as “recognises”.

In the next assay the target is T2, A*02/YLQ peptide on A*02/YLQ (human).
T2 peptide: YLQPRTFLL
The experiment in a line: activation reporter or marker.
With B8, the binding result is “recognises”.

Regarding B9, the binding result is “no recognition”.

Consider B10, for which the binding result is listed as “recognises”.

Take B11: the binding result is “recognises”.

As to B12, the binding result is reported as “recognises”.

For the molecule B13, the binding result was “recognises”.

As to B14, the binding result is recorded as “recognises”.

For B15, the binding result is “recognises”.

A further assay deals with T3, A*24/QYI peptide on A*24/QYI (human).
T3 peptide: QYIKWPWYI
The experiment in a line: activation reporter or marker.
Regarding B16, the binding result is “no recognition”.

With B17, the binding result is “no recognition”.
